Test [1] addresses T1, PD-1-hIgGFc antigen (human, UniProt Q15116 25-167, limits assumed).
T1 construct: not shown: human IgG Fc (hIgGFc)
The test can be described thus: competitive ELISA, PD-1-hIgGFc coated, competitor PDL1-mIgG2aFc 0.3 µg/ml. On the procedure: A 96-well ELISA plate was coated with PD-1-hIgGFc antigen in a concentration of 0.5 μg/ml (50 μl per well) by incubation at 4° C. overnight.
(An ELISA detects its analyte on a solid surface through an enzyme-linked reagent.)

Test [2] has as its target T2, PD-1-his antigen (UniProt Q15116 25-167, limits assumed).
T2 construct: not shown: his tag
The test can be described thus: ELISA, PD-1-his coated at 0.25 µg/ml. On the procedure: An ELISA plate was coated with PD-1-his antigen in a concentration of 0.25 μg/ml (100 μl per well) by incubation at 4° C. overnight.
The ELISA plate coated with the PD-1-his antigen was blocked with 1% BSA in the PBS buffer at 37° C. for 2 hours and washed with 1×PBST buffer containing 1% Tween-20 for three times, with gently patting to dryness.

Test [3] addresses T1, PD-1-hIgGFc antigen. The test can be described thus: competitive ELISA, PD-1-hIgGFc coated, competitor PDL2-his tag 0.5 µg/ml. The protocol:
A 96-well ELISA plate was coated with PD-1-hIgGFc antigen in a concentration of 1.0 μg/ml (100 μl per well) by incubation at 4° C. overnight.
After the 96-well ELISA plate was washed with the PBST buffer for five times and gently patted to dryness, HRP-conjugated monoclonal mouse anti-his tag as a secondary antibody in 1:750 dilution (50 μl per well) was added for incubation at 37° C. for 1 hour.

T1 sequence (Q15116 25-167 limits assumed): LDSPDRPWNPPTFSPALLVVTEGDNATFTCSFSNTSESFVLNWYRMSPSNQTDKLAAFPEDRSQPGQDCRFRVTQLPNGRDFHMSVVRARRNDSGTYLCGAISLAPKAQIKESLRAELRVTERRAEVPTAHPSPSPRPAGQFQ
T2 sequence (Q15116 25-167 limits assumed): as above

B1: humanized H8L2 antibody (IgG-like antibody H8L2 against PD-1) (antibody)
heavy: EVQLVQSGGGLVQPGGSLKLSCAASGFTFSSYGMSWVRQAPGKGLDWVATISGGGRDTYYPDSVKGRFTISRDNSKNNLYLQMNSLRAEDTALYYCARQKGEAWFAYWGQGTLVTVSSASTKGPSVFPLAPCSRSTSESTAALGCLVKDYFPEPVTVSWNSGALTSGVHTFPAVLQSSGLYSLSSVVTVPSSSLGTKTYTCNVDHKPSNTKVDKRVESKYGPPCPPCPAPEFLGGPSVFLFPPKPKDTLMITRTPEVTCVVVDVSQEDPEVQFNWYVDGVEVHNAKTKPREEQFNSTYRVVSVLTPLHQDWLNGKEYKCKVSNKGLPSSIEKTISKAKGQPREPQVYTLPPSQEEMTKNQVSLTCLVKGFYPSDIAVEWESNGQPENNYKTTPPVLDSDGSFFLYSRLTVDKSRWQEGNVFSCSVMHEALHAHYTQKSLSLSLGK
light: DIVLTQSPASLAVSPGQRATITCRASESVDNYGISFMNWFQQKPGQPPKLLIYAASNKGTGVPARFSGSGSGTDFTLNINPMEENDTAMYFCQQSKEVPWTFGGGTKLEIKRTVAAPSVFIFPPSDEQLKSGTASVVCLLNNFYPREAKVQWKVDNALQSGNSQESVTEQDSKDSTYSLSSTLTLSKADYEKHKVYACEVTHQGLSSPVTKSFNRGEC
notes: Expressed in 293 cells and purified on protein A; also called 18A10 H8L2
Turning to B1, the concentration giving a half-maximal response (EC50) in test [1] stood at 0.474 nM; in test [2], 0.04 nM; in test [3] it was 1.83 nM.

As a reminder, the EC50 is the concentration that produces a half-maximal response. A higher EC50 goes with a less potent agent.

The values above are taken from patent US20190330313A1 (HANX BIOPHARMACEUTICS, published 2019).
